B1: bispecific antibody PD1a-E-HN (bispecific antibody, human IgG4 S228P, kappa)
heavy: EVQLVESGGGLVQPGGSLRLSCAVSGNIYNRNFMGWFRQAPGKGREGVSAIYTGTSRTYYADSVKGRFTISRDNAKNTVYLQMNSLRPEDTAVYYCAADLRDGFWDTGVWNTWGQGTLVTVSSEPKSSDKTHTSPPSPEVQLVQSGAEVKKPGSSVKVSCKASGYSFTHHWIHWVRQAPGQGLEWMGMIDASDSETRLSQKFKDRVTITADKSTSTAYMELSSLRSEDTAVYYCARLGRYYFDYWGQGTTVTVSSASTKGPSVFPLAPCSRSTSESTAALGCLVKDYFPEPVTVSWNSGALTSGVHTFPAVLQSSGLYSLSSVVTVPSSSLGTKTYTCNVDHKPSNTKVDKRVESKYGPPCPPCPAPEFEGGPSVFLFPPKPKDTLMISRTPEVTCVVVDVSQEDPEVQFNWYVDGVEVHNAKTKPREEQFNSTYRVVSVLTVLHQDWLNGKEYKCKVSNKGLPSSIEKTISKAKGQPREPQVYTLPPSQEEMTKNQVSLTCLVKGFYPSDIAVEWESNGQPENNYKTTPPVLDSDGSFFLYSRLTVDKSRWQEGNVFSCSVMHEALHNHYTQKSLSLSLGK
light: EIVLTQSPATLSLSPGERATLSCRASENVGTYISWYQQKPGQAPRLLIYGASNRYTGIPARFSGSGSGTDFTLTISSLEPEDFAVYYCGESYGHLYTFGGGTKVEIKRTVAAPSVFIFPPSDEQLKSGTASVVCLLNNFYPREAKVQWKVDNALQSGNSQESVTEQDSKDSTYSLSSTLTLSKADYEKHKVYACEVTHQGLSSPVTKSFNRGEC
notes: PD1a sdAb fused by the E-linker to the N-terminus of heavy chain H0; also called H3 + L0
B2: bispecific antibody PD1a-G15-HC (bispecific antibody, human IgG4 S228P, kappa)
heavy: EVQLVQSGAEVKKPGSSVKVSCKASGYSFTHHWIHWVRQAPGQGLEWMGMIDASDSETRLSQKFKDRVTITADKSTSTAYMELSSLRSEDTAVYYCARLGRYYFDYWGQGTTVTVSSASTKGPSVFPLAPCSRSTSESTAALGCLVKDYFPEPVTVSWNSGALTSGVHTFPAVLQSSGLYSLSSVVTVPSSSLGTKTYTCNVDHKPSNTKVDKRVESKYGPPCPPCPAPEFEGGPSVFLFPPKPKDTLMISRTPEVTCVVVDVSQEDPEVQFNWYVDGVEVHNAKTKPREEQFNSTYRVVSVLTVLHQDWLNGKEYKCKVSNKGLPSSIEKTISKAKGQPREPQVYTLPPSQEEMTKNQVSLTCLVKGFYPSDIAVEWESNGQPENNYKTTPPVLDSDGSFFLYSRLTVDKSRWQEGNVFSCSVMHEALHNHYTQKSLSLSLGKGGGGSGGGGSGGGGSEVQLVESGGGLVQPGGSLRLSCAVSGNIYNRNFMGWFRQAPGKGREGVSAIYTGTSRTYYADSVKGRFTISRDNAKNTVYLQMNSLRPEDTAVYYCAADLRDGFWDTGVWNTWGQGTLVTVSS
light: EIVLTQSPATLSLSPGERATLSCRASENVGTYISWYQQKPGQAPRLLIYGASNRYTGIPARFSGSGSGTDFTLTISSLEPEDFAVYYCGESYGHLYTFGGGTKVEIKRTVAAPSVFIFPPSDEQLKSGTASVVCLLNNFYPREAKVQWKVDNALQSGNSQESVTEQDSKDSTYSLSSTLTLSKADYEKHKVYACEVTHQGLSSPVTKSFNRGEC
notes: PD1a sdAb fused by the G15-linker to the C-terminus of heavy chain H0; also called H5 + L0
B3: bispecific antibody PD1a-E-HC (bispecific antibody, human IgG4 S228P, kappa)
heavy: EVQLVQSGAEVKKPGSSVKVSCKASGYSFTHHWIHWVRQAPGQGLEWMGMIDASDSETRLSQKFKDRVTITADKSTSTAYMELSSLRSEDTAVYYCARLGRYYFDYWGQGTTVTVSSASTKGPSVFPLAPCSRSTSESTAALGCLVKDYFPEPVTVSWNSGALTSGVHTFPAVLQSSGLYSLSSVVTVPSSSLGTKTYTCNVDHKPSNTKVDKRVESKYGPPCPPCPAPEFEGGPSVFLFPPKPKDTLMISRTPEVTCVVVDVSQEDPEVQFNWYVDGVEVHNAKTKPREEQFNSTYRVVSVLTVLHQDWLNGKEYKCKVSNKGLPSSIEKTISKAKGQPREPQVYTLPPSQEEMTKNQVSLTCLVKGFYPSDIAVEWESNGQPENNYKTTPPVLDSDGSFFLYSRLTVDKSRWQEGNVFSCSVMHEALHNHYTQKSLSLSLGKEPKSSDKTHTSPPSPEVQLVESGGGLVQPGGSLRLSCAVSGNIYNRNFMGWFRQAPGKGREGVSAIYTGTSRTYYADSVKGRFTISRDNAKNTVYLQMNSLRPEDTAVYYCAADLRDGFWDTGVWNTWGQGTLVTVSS
light: EIVLTQSPATLSLSPGERATLSCRASENVGTYISWYQQKPGQAPRLLIYGASNRYTGIPARFSGSGSGTDFTLTISSLEPEDFAVYYCGESYGHLYTFGGGTKVEIKRTVAAPSVFIFPPSDEQLKSGTASVVCLLNNFYPREAKVQWKVDNALQSGNSQESVTEQDSKDSTYSLSSTLTLSKADYEKHKVYACEVTHQGLSSPVTKSFNRGEC
notes: PD1a sdAb fused by the E-linker to the C-terminus of heavy chain H0; also called H1 + L0
B4: bispecific antibody PD1b-E-HN (bispecific antibody, human IgG4 S228P, kappa)
heavy: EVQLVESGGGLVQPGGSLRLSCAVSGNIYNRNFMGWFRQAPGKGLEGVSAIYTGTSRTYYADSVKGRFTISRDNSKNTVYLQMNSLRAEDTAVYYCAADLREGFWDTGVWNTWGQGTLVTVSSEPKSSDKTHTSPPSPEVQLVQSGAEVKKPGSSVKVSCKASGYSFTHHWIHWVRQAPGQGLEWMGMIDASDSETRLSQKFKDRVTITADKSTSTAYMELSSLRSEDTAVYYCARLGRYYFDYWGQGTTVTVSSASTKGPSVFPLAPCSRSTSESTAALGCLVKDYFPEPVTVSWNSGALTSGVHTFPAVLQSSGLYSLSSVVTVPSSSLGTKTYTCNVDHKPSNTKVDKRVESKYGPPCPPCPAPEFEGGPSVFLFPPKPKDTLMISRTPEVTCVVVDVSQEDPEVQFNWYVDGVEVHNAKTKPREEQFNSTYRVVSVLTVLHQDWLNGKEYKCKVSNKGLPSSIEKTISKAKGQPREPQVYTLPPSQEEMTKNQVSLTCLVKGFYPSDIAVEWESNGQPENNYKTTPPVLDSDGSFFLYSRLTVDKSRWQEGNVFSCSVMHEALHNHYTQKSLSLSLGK
light: EIVLTQSPATLSLSPGERATLSCRASENVGTYISWYQQKPGQAPRLLIYGASNRYTGIPARFSGSGSGTDFTLTISSLEPEDFAVYYCGESYGHLYTFGGGTKVEIKRTVAAPSVFIFPPSDEQLKSGTASVVCLLNNFYPREAKVQWKVDNALQSGNSQESVTEQDSKDSTYSLSSTLTLSKADYEKHKVYACEVTHQGLSSPVTKSFNRGEC
notes: PD1b sdAb fused by the E-linker to the N-terminus of heavy chain H0; also called H4 + L0
B5: bispecific antibody PD1b-E-HC (bispecific antibody, human IgG4 S228P, kappa)
heavy: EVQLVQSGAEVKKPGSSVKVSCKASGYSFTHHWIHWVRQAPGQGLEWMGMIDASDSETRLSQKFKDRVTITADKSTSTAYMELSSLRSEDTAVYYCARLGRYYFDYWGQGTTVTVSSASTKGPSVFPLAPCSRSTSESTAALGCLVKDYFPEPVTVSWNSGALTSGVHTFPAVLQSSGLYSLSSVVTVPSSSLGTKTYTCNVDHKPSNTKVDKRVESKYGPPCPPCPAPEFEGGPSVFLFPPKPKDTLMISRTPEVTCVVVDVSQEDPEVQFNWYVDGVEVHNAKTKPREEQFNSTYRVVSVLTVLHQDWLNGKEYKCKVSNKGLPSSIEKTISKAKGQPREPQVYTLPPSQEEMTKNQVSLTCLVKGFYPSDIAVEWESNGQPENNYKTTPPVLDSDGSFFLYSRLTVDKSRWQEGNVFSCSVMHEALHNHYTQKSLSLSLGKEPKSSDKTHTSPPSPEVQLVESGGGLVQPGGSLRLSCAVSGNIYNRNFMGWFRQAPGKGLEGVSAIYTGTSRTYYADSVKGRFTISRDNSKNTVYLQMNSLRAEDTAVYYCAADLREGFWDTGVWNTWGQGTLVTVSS
light: EIVLTQSPATLSLSPGERATLSCRASENVGTYISWYQQKPGQAPRLLIYGASNRYTGIPARFSGSGSGTDFTLTISSLEPEDFAVYYCGESYGHLYTFGGGTKVEIKRTVAAPSVFIFPPSDEQLKSGTASVVCLLNNFYPREAKVQWKVDNALQSGNSQESVTEQDSKDSTYSLSSTLTLSKADYEKHKVYACEVTHQGLSSPVTKSFNRGEC
notes: PD1b sdAb fused by the E-linker to the C-terminus of heavy chain H0; also called H2 + L0
B6: bispecific antibody PD1a-E-LN (bispecific antibody, human IgG4 S228P, kappa)
heavy: not shown
light: EVQLVESGGGLVQPGGSLRLSCAVSGNIYNRNFMGWFRQAPGKGREGVSAIYTGTSRTYYADSVKGRFTISRDNAKNTVYLQMNSLRPEDTAVYYCAADLRDGFWDTGVWNTWGQGTLVTVSSEPKSSDKTHTSPPSPEIVLTQSPATLSLSPGERATLSCRASENVGTYISWYQQKPGQAPRLLIYGASNRYTGIPARFSGSGSGTDFTLTISSLEPEDFAVYYCGESYGHLYTFGGGTKVEIKRTVAAPSVFIFPPSDEQLKSGTASVVCLLNNFYPREAKVQWKVDNALQSGNSQESVTEQDSKDSTYSLSSTLTLSKADYEKHKVYACEVTHQGLSSPVTKSFNRGEC
notes: PD1a sdAb fused by the E-linker to the N-terminus of light chain L0; also called L3 + H0
B7: bispecific antibody PD1b-E-LN (bispecific antibody, human IgG4 S228P, kappa)
heavy: not shown
light: EVQLVESGGGLVQPGGSLRLSCAVSGNIYNRNFMGWFRQAPGKGLEGVSAIYTGTSRTYYADSVKGRFTISRDNSKNTVYLQMNSLRAEDTAVYYCAADLREGFWDTGVWNTWGQGTLVTVSSEPKSSDKTHTSPPSPEIVLTQSPATLSLSPGERATLSCRASENVGTYISWYQQKPGQAPRLLIYGASNRYTGIPARFSGSGSGTDFTLTISSLEPEDFAVYYCGESYGHLYTFGGGTKVEIKRTVAAPSVFIFPPSDEQLKSGTASVVCLLNNFYPREAKVQWKVDNALQSGNSQESVTEQDSKDSTYSLSSTLTLSKADYEKHKVYACEVTHQGLSSPVTKSFNRGEC
notes: PD1b sdAb fused by the E-linker to the N-terminus of light chain L0; also called L4 + H0
B8: bispecific antibody PD1a-E-LC (bispecific antibody, human IgG4 S228P, kappa)
heavy: not shown
light: EIVLTQSPATLSLSPGERATLSCRASENVGTYISWYQQKPGQAPRLLIYGASNRYTGIPARFSGSGSGTDFTLTISSLEPEDFAVYYCGESYGHLYTFGGGTKVEIKRTVAAPSVFIFPPSDEQLKSGTASVVCLLNNFYPREAKVQWKVDNALQSGNSQESVTEQDSKDSTYSLSSTLTLSKADYEKHKVYACEVTHQGLSSPVTKSFNRGECEPKSSDKTHTSPPSPEVQLVESGGGLVQPGGSLRLSCAVSGNIYNRNFMGWFRQAPGKGREGVSAIYTGTSRTYYADSVKGRFTISRDNAKNTVYLQMNSLRPEDTAVYYCAADLRDGFWDTGVWNTWGQGTLVTVSS
notes: PD1a sdAb fused by the E-linker to the C-terminus of light chain L0; also called L1 + H0
B9: bispecific antibody PD1b-E-LC (bispecific antibody, human IgG4 S228P, kappa)
heavy: not shown
light: EIVLTQSPATLSLSPGERATLSCRASENVGTYISWYQQKPGQAPRLLIYGASNRYTGIPARFSGSGSGTDFTLTISSLEPEDFAVYYCGESYGHLYTFGGGTKVEIKRTVAAPSVFIFPPSDEQLKSGTASVVCLLNNFYPREAKVQWKVDNALQSGNSQESVTEQDSKDSTYSLSSTLTLSKADYEKHKVYACEVTHQGLSSPVTKSFNRGECEPKSSDKTHTSPPSPEVQLVESGGGLVQPGGSLRLSCAVSGNIYNRNFMGWFRQAPGKGLEGVSAIYTGTSRTYYADSVKGRFTISRDNSKNTVYLQMNSLRAEDTAVYYCAADLREGFWDTGVWNTWGQGTLVTVSS
notes: PD1b sdAb fused by the E-linker to the C-terminus of light chain L0; also called L2 + H0

The target of this assay is T1, human PD-1 (human, UniProt Q15116 25-288).
T1 construct: whole, on cells; also called PD-1 antigen
T1 sequence (Q15116 25-288): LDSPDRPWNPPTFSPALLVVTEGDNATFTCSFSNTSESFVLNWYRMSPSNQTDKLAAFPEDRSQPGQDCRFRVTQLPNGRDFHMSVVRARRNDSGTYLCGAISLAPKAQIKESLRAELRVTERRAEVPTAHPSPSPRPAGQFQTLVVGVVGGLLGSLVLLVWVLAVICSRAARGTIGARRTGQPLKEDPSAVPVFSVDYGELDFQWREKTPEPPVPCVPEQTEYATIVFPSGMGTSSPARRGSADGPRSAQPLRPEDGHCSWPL
The assay is described as follows: flow cytometry on CHO-K1 cells expressing PD-1. On the procedure:
For the constructed series of bispecific antibodies, the affinity of these samples with antigens was measured by using a flow cytometer. […] Then, an antibody-antigen binding curve was generated based on the geometric mean, raw data of four parameters was plotted by using the […] Prism V6.02 software, and a best fitted value program was compiled to analyze EC₅₀.
For B1, the binding result is reported as “binds”.

For the molecule B2, the binding result is given as “binds”.

Regarding B3, the binding result is listed as “binds”.

For the molecule B4, the binding result is “binds”.

Turning to B5, the binding result was “binds”.

Turning to B6, the binding result is on record as “binds”.

Regarding B7, the binding result was “binds”.

In the case of B8, the binding result is recorded as “binds”.

B9: the binding result was “binds”.

For the origin of these results see patent US20220332824A1 (NANJING GENSCRIPT BIOTECH, published 2022).
